# Results taken from patent US20260216243A1 (TWAIN THERAPEUTICS PTE, published 2026).
# T1: recombinant human interleukin 9 receptor alpha (hIL9R) fused, at the c-terminal, to a human IgG1 Fc (hIL9R-Fc) (human, UniProt Q01113 41-270)
# T1 construct: Bought protein; also called Acro Biosystems, Cat. No. ILR-H5251; not shown: human IgG1 Fc fused at the C-terminal
# T1 sequence: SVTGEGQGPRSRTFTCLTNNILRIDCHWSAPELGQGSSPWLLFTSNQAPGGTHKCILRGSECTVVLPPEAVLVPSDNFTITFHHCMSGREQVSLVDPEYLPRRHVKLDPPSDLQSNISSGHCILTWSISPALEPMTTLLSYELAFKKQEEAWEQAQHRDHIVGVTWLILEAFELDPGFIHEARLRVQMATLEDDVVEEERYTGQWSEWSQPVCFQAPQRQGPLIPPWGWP
# Experiments:
# hIgG1-Fc = molecular target: T2, hIgG1-Fc (human, UniProt P01857-1 99-330 = IgG part, limits assumed); test: ELISA, crude periplasmic extracts on hIgG1-Fc coated wells as reference for Fc specific clones
# T2 construct: domain: Fc; also called Sino Biological, Cat. No. 10702-HNAH
# Text: (§1) The antigen used for panning and ELISA screening was the same as the one used for immunization (Acro Biosystems, Cat. No. ILR-H5251), using uncoated blocked wells as negative control (blank) and hIgG1-Fc (Sino Biological, Cat. No. 10702-HNAH) coated wells as reference for Fc specific clones. Out of these 570 colonies tested by ELISA, 90 colonies scored positive for hIL9R-Fc only. Based on sequence data of the positive colonies, 29 different Nanobodies were distinguished, belonging to 14 different CDR3 groups (B-cell lineages)
# [1] = molecular target: T1, recombinant human interleukin 9 …; test: selected from the clones positive in ELISA of periplasmic extracts on coated hIL9R-Fc
# Text: as §1
binding result (hIgG1-Fc),binding result [1],Binder
no binding,binds,"2SAT363 (VHH, Screened as soluble Nanobody in crude periplasmic extracts, expressed from pMECS-GG; also called T2; VHH anti-IL-9Rα 2SAT363) VHH: QVQLQESGGGLVQAGGSLRLSCTVSGSFFNINAMGWYRQAPGKQRELVATITAGGSTKYEDTVKGRFTISGDSAKNTVSLQMNSLKPEDTAVYYCAAWGTRIRDDYWGQGTQVTVSS"
no binding,binds,"2SAT57 (VHH, Screened as soluble Nanobody in crude periplasmic extracts, expressed from pMECS-GG; also called T3; VHH anti-IL-9Rα 2SAT57) VHH: QVQLQESGGGLVQAGGSLRLSCAASGSIFSINAMGWFRQAPGKQRELVAVISSGGSTNHADSVKGRFTISRDNAKNTVYLQMNSVKPEDTAVYYCLVATRGGTYEYWGQGTQVTVSS"
